We go through four molecules from patent US20060024698, “Method to protect DNA ends” (published 2006).

Series [1] has as its target T1, DdrA (DR0423) (Deinococcus radiodurans R1, UniProt Q9RX92 SEQ:1-208).
T1 sequence: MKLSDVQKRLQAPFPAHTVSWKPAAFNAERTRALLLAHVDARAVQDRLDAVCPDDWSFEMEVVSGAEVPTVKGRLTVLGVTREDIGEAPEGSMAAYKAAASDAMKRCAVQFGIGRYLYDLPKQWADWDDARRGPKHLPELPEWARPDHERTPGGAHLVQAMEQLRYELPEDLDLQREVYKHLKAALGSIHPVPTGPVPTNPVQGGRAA
Kind of series: EMSA; 4 uM DdrA; not disrupted by 1000-2000 fold excess of 5'-extension oligo. As to conditions: tags: untagged, expressed in E. coli from pEAW298; chain copies: 8-10 subunit oligomer in solution by gel filtration (stated); label: 3'-32P ddATP; 18 bp hairpin with 16 nt 3' single-strand extension.
Method: Four sets of EMSA assays are presented, with the gels and electrophoresis conditions carefully matched. DNA substrate concentrations are 0.7 nM in each case, reported as total molecules. In each set, the first three lanes have show the effects of the indicated concentration of DdrA protein. […] In set D, the sixth and seventh lanes are identical to the third lane (with 4 μM DdrA protein), except that they have been challenged with a 1000-fold or 2000-fold excess of unlabeled oligo with a 5′ extension, respectively. The unlabeled challenge oligo is the same as that used in reaction set C. (FIG. 7A) Single-strand oligonucleotides (51 nucleotides in length), labelled on the 5′ end. (FIG. 7B) 5′ end-labeled duplex DNA fragments (51 bp). (FIG. 7C) 5′-end-labelled oligonucleotide, with a self-complementary sequence leading to the formation of an 18 bp hairpin and a 15 nucleotide 5′ single strand extension. (FIG. 7D) 3′ end-labelled oligonucleotide, with a self-complementary sequence leading to the formation of an 18 bp hairpin and a 16 nucleotide 3′ single strand extension. The sequences of the single strand extensions in the oligos used in sets C and D are matched, except that an extra adenosine residue has been added to the oligo used in set D during the labelling process.

For series [2], the target named is T1, DdrA (DR0423). The experiment in a line: FP; KD,app; 1.0 nM DNA, 30 C, 30 min. The following applies: tags: untagged, expressed in E. coli from pEAW298; chain copies: 8-10 subunit oligomer in solution by gel filtration (stated); label: 3' fluorescent tag. The protocol: FIG. 9 is a graph of fluorescence anisotropy data for DdrA binding to single-stranded DNA. Increasing concentrations of DdrA protein were incubated with 3′-fluorescently tagged DNA (1.0 nM) at 30° C. for 30 minutes. Samples were analyzed using the Beacons 2000 Fluorescence Polarization System and a curve was generated suing CURVE EXPERT 1.3 software. The K_{D,app} for each substrate is the concentration of DdrA when 50% of the DNA is bound as determined by the generated curve fit.
In general terms: Size exclusion chromatography separates by hydrodynamic size, large species first.

B1: hairpin with 3' extension (oligo A) (structured_DNA)
DNA: TTAACGACCGTCGACCTGCAGGTCGACGGTCGTTAACGTCTCTCAGATTGT
modifications: 3'-terminal ddA added
In the case of B1, the binding result in the series with DdrA (DR0423) [1] was “binds”.
In the case of AAGCACAATTACCCACGC (ssDNA) [18 nt ssDNA], in the series with DdrA (DR0423) [2], the Kd was found to be 640 nM.
The same measure, in the same setting: the result for GGCCTCGCGGTAGCTGAGCTCGGAGCGCACGATTCGCACTGCTGATGTTC (ssDNA) [50 nt ssDNA] reads 118 nM; that for GCGTGGGTAATTGTGCTTCAATGGACTGAC (ssDNA) [30 nt ssDNA], 406 nM.
